Publication PMC5500548, “Facile Control over the Supramolecular Ordering of Self-assembled Peptide Scaffolds by Simultaneous Assembly with a Polysacharride” (Scientific Reports, 2017)
No end group written: not given here. *: point of attachment. Fmoc = O=C(OCC1c2ccccc2-c2ccccc21)*

Molecular target: the molecule itself
Experiment: transmission electron microscopy + atomic force microscopy; hydrogel of 10 mg/mL Fmoc-FRGDF formed by pH switch to pH 7.4, PBS; dried, negatively stained (TEM) or on HOPG (AFM)

B1: Fmoc-FRGDF (peptide)
peptide: Fmoc-FRGDF
notes: the Fmoc group is kept on the N-terminus; Low molecular weight gelator; also called Fluorenylmethoxycarbonyl (Fmoc) pentapeptide; SAP; source: synthetic peptide (solid phase Fmoc peptide synthesis)
- binding result: binds
